Laboratory results as given in article PMC8792015, “The MuvB complex binds and stabilizes nucleosomes downstream of the transcription start site of cell-cycle dependent genes”.

Target: MuvB complex (LIN9 94-542, LIN37, LIN52, LIN54 504-749, RBAP48) (Homo sapiens, UniProt Q5TKA1;Q96GY3;Q52LA3;Q6MZP7;Q09028 94-542;1-246;1-112;504-749;1-425)
Experiment: fluorescence polarization; Kd value only in figure table; FP nucleosomes/601: 50 mM Tris pH 7.5, 150 mM NaCl, 1 mM DTT, 0.1% Tween-20, 20 nM probe (stated for peptide); FP TTK: 20 nM DNA, 20 mM Tris pH 8.0, 150 mM NaCl, 0.1% Tween-20; temperature not stated
Details: protein: recombinant; tags: GST/Strep/His tags removed by TEV; copies: 1;1;1;1;1; label: fluorescein

B1: TTK promoter 40-bp fragment (dsDNA)
DNA 1: GTGATAGCGACGGGGAAATTCAAACGTGTTTGCGGAAAGG
DNA 2: CCTTTCCGCAAACACGTTTGAATTTCCCCGTCGCTATCAC
B1: binds.
